The series relates to K4 kissing-loop RNA reporter. The series can be described thus: apparent KD of K4 kissing-loop reporter; higher = weaker reporter binding. The following applies: Eterna round: R107. The procedure:
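RNA-MaP round R107: designed RNA switches with theophylline, tryptophan, arginine or FMN aptamers are transcribed on-chip within common flanks. They are titrated with a labelled K4 kissing-loop RNA reporter in RNA-MaP buffer (100 mM Tris pH 7.5, 80 mM KCl, 4 mM MgCl2), without ligand or with the indicated ligand. Median apparent KD per design.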

The mark [1] stands for this setting: input ligand: theophylline 20 uM.
[2] abbreviates: input ligand: tryptophan 2.4 mM.
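Note: bound reporter read as fluorescence of individual clusters on recovered sequencing chips by microscopy, with normalized cluster intensities fitted with a binding model.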

For the sequence “GCGUUACUGAAAGGAUAUGAUCAACAUAGUGGUCAGUGAUGUUGGCAGGCCUCGUGGCGAGGUAGAUCAGAAGGUUCAUUACGAC [theeternabot_sameState_KL_FMN_B_11]”, the “apparent KD of K4 kissing-loop reporter” value was found to be 415 nM (input ligand: FMN 200 uM); 484 nM (input ligand: arginine 13.2 mM); 553 nM (input ligand: none); 502 nM under setting [1]; 482 nM under setting [2].

Take “GCUACUGCUGAAGGAUAUAUCAAUAGAGUGAUGUUCUAUGUCGGUAGCCCGAAAGGGCUACCGACGAUAGAAGGUCAGCAGUAGC”: the “apparent KD of K4 kissing-loop reporter” value (input ligand: FMN 200 uM) is 113 nM; the “apparent KD of K4 kissing-loop reporter” value (input ligand: arginine 13.2 mM) came out at 1020 nM; the “apparent KD of K4 kissing-loop reporter” value (input ligand: none) turned out to be 723 nM; the “apparent KD of K4 kissing-loop reporter” value under setting [1] turned out to be 1070 nM; the “apparent KD of K4 kissing-loop reporter” value under setting [2] stood at 983 nM.

On to “GCUAGGCAUGCAGGAUAUCGCCGAGUGAUGUUCGGUAGGCCGCUUUCUUUCUUUCUUUGCGGCCAGCGAGAAGGGCAUGCCUAGC”, for which the “apparent KD of K4 kissing-loop reporter” value (input ligand: FMN 200 uM) was 139 nM; the “apparent KD of K4 kissing-loop reporter” value (input ligand: arginine 13.2 mM) came to 112 nM; the “apparent KD of K4 kissing-loop reporter” value (input ligand: none) came out at 108 nM; the “apparent KD of K4 kissing-loop reporter” value under setting [1] turned out to be 68 nM; the “apparent KD of K4 kissing-loop reporter” value under setting [2] came to 118 nM.

Regarding “GCUAUGGUAGGAAGGAGCGCUGCCUUGUUUUUACGAGUGAUGUUCGGAAGCAGGGCGUUAAAGCAGGUAGGUCGCCUACUAUAGC [Arginine B K4 22]”, the “apparent KD of K4 kissing-loop reporter” value was found to be 220 nM (input ligand: FMN 200 uM); 135 nM (input ligand: arginine 13.2 mM); 152 nM (input ligand: none); 147 nM under setting [1]; 146 nM under setting [2].

Turning to “GCUAUGGUAGGAAGGAGCGCUUACUCGUUAAUAAGAGUGAUGUUCGAUAACGAGUAUUUAUAGCAGGUAGGUCGCCUACUAUAGC [Arginine B K4 4]”, the “apparent KD of K4 kissing-loop reporter” value is, setting by setting: (input ligand: FMN 200 uM) 207 nM; (input ligand: arginine 13.2 mM) 193 nM; (input ligand: none) 168 nM; under setting [1], 242 nM; under setting [2], 199 nM.

Take “GGACGACAGUCGGCCGCCACUCACAGCCGAGUGAUGUUCGGGAUUGUAGCGGAGUGAUGUUUCGCGAGGACCGGGACUGCAGUCC [Same State Typtophan B GF 27]”: the “apparent KD of K4 kissing-loop reporter” value stood at 200 nM (input ligand: FMN 200 uM); 166 nM (input ligand: arginine 13.2 mM); 184 nM (input ligand: none); 171 nM under setting [1]; 141 nM under setting [2].

For “GGACUACUAUGUCCCAUACAAACAAGAGAUACCAGCCAUCAUAGAGGCCCUUGGCAGCUCAUAUAAUCCAGUGAUGUUGGAUUUC [Beveus]”, the “apparent KD of K4 kissing-loop reporter” value runs as follows: (input ligand: FMN 200 uM) 150 nM; (input ligand: arginine 13.2 mM) 193 nM; (input ligand: none) 163 nM; under setting [1], 136 nM; under setting [2], 132 nM.

For “GGAGAGCGAAAAGGAUAUGCGUCCGUCAAAAUUAUGUAGCGCGGAAAAUGGUAGUGAUGUUGCAAAGCAGAAGGUUUCAGAUGUA [theeternabot_sameState_KL_FMN_B_43]”, the “apparent KD of K4 kissing-loop reporter” value (input ligand: FMN 200 uM) turned out to be 260 nM; the “apparent KD of K4 kissing-loop reporter” value (input ligand: arginine 13.2 mM) was determined as 259 nM; the “apparent KD of K4 kissing-loop reporter” value (input ligand: none) stood at 450 nM; the “apparent KD of K4 kissing-loop reporter” value under setting [1] was 519 nM; the “apparent KD of K4 kissing-loop reporter” value under setting [2] turned out to be 216 nM.

As to “GGAGGAGAAUAUGAUACCAGCAGAGAGAGAGAGGAAGUAUAGUGAUGUUAUAUGUGAGAAUGCCCUUGGCAGCAUAACAUGAAGG [whbob_SS_Theo_B_sa90]”, the “apparent KD of K4 kissing-loop reporter” value (input ligand: FMN 200 uM) turned out to be 288 nM; the “apparent KD of K4 kissing-loop reporter” value (input ligand: arginine 13.2 mM) came to 193 nM; the “apparent KD of K4 kissing-loop reporter” value (input ligand: none) amounted to 211 nM; the “apparent KD of K4 kissing-loop reporter” value under setting [1] was 454 nM; the “apparent KD of K4 kissing-loop reporter” value under setting [2] was determined as 159 nM.

As for “GGAGUUACCUGGGAUACCAGUCGGAGUCCCAGAGCUCGGAGUGAUGUUCUGGGAUGUUUCGGCCCUUGGCAGCUCUGGGACUCCC [#2 Exclusion - Theophylline B Attempt #9 (HarryS)]”, the “apparent KD of K4 kissing-loop reporter” value worked out at 893 nM (input ligand: FMN 200 uM); 597 nM (input ligand: arginine 13.2 mM); 776 nM (input ligand: none); 726 nM under setting [1]; 780 nM under setting [2].

For the sequence “GGAUAGGACACGGCCGCCACUACCGAGGAUACUCGAAACAUUUCCUCAGAUGAGUGAUGUUCAUCUAGGACCGGGUGUCCUAUCG [KL-XTryp-B19 #analogue]”, the “apparent KD of K4 kissing-loop reporter” value runs as follows: (input ligand: FMN 200 uM) 125 nM; (input ligand: arginine 13.2 mM) 103 nM; (input ligand: none) 118 nM; under setting [1], 121 nM; under setting [2], 131 nM.

On to “GGAUAGGACAGAGGAUAUGGCAGUCUACAAAGUAGGCUGAAAUAAAUCCUUGAAUGGAGUGAUGUUCCAGAAGGCUGUCCUAUCG [FmnBX 23 #SwitchBubble #StaticStem #Palindromic]”, for which the “apparent KD of K4 kissing-loop reporter” value was found to be 911 nM (input ligand: FMN 200 uM); 156 nM (input ligand: arginine 13.2 mM); 158 nM (input ligand: none); 169 nM under setting [1]; 172 nM under setting [2].

Consider “GGAUAGGACAGAGGAUAUGGUAGCUAGGCAAGACAAAAGUCUUGUCUAGCAAUGAGGAGUGAUGUUCCAGAAGGCUGUCCUAUCG [FmnBX 4 - #SwitchBubble #StaticStem]”, for which the “apparent KD of K4 kissing-loop reporter” value is, setting by setting: (input ligand: FMN 200 uM) 753 nM; (input ligand: arginine 13.2 mM) 350 nM; (input ligand: none) 442 nM; under setting [1], 387 nM; under setting [2], 270 nM.

“GGAUAGGACGGAGGAUAUGGUAGUGAUGUUACCAAACUGGUUAAACAUGUCAGAAAACUGGCAUGACCAGAAGGUUGUCCUAUCG [FmnBX 27 G10+U75]”: the “apparent KD of K4 kissing-loop reporter” value is, setting by setting: (input ligand: FMN 200 uM) 98.2 nM; (input ligand: arginine 13.2 mM) 69 nM; (input ligand: none) 94.5 nM; under setting [1], 44.4 nM; under setting [2], 73.3 nM.

In the case of “GGAUAGGAUAGAGGAUAUGGAAAACACAGAAAUGACUUGUUGUGUUUAUCCAUAGGGAGUGAUGUUCCAGAAGGCUGUCCUAUCG [MatMod 21 - Jieux - Exclusion - FMN B]”, the “apparent KD of K4 kissing-loop reporter” value by setting is: (input ligand: FMN 200 uM) 289 nM; (input ligand: arginine 13.2 mM) 184 nM; (input ligand: none) 194 nM; under setting [1], 198 nM; under setting [2], 158 nM.

Turning to “GGAUAGGAUAGAGGAUAUGGCUUAUGCAGAAAUAACUUAUUGUGUAAAUCCAUAGGGAGUGAUGUUCCAGAAGGCUGUCCUAUCG [MatMod 16 - Jieux - Exclusion - FMN B]”, the “apparent KD of K4 kissing-loop reporter” value amounted to 821 nM (input ligand: FMN 200 uM); 218 nM (input ligand: arginine 13.2 mM); 235 nM (input ligand: none); 224 nM under setting [1]; 202 nM under setting [2].
